Measured values taken from patent US9278138B2, “Peptide linkers for effective multivalent peptide binding” (E. I. DU PONT DE NEMOURS AND COMPANY, priority 2008, dated 2016).

B1: SDETGPQIPHRRPTWGPEPEPEPEPIPEPPKEAPVVIEKPKPKPKPKPKPPASDETGPQIPHRRPTW (peptide)
chain: SDETGPQIPHRRPTWGPEPEPEPEPIPEPPKEAPVVIEKPKPKPKPKPKPPASDETGPQIPHRRPTW
modifications: synethic cellulose acetate-binding construct

Experiment: Surface Plasmon Resonance binding to spin-coated cellulose acetate surface (Biacore X100)
Conditions: for peptide concentration at which binding response (net RU) started rising: net RU versus peptide concentration, FIG. 6
Protocol: Binding affinity of CA4 peptide and CA4 multimers were assessed by Surface Plasmon Resonance (SPR). The CA surface was prepared by spin-coating 0.75% CA solution in mixed cyclohexanone/methyl ethyl ketone (1/9 weight ratio) solvent at 2000 rpm for 1 minute twice on the Biacore bare gold sensor chip (Biacore Inc., Catalogue numberBR-1004-05; General Electric Corp., Fairfield, Conn.), followed by 80° C. annealing for 15 minutes. The CA resin used was CA-398-10 from Eastman Chemical Company (Kingsport, Tenn.), and the solution prepared was filtered with 0.2 μm PTFE membrane before use. The thickness of the spin-coated CA thin film was measured by Atomic Force Microscope (AFM) to be 26-30 nm.
Binding of each peptide to the CA surface was tested at various concentration ranges in Tris Buffered Saline (TBS, 25 mM Tris, 150 mM NaCl, pH 7.5), using Biacore X100 system. Each peptide solution sample was injected for 2 minutes at flow rate of 30 μL/minute followed by 10 minutes buffer wash. Surface regeneration and stabilization procedure was performed after each peptide solution injection as such: 90 seconds of 1% SLES (sodium laureth sulfate) solution injection and 90 seconds of 2 M NaCl solution injection at flow rate of 10 μL/minute, and 25 minutes stabilization in TBS. For the samples of each peptide at different concentrations, a new sensor chip flow cell was used.
Because a monolithic CA surface made from spin-coating on the whole sensor chip was used as ligand for peptides, no ligand-free reference cell was possible to have in these tests in order to take bulk response out as in conventional SPR protein assay using Biacore instruments. Bulk response refers to the SPR response to the refractive index difference between the sample solution and the running buffer, but not caused by sample binding to the surface. Bulk response completely disappears once sample injection is finished and buffer wash starts. So the response units (RU) remained right after injection was caused by binding and proportional to the mass of peptide bound to the surface, and was named as “net RU” in binding data. […] Typically, association and dissociation rate constant (ka and kd) can be obtained from binding kinetics curve fitting, and dissociation constant (KD). can be determined from the ratio of dissociation rate constant to association rate constant. The use of short linkers (3-6 amino acid residues) in CA4 dimer 1, CA4 dimer 2 and CA4 trimer gave 5 fold improvement on binding affinity compared to CA4 monomer. The use of long rigid linker (TonB linker) in CA4 dimer 4 gave 50 fold improvement on binding affinity compared to CA4 monomer. […] As control, the TonB linker peptide was tested in the same way.

[1] = TBS pH 7.5, from binding kinetics curve fitting

Row | Molecule | binding affinity to CA surface (in words) (SPR) | KD(M) from kinetics (TBS pH 7.5, ratio of kd to ka) | peptide concentration at which binding response (net RU) started rising | ka [1] | kd [1] | Kd (TBS pH 7.5, ratio of kd to ka, read-out: KD(M) from kinetics) | fold improvement on binding affinity compared to CA4 monomer (based on KD of Table 10)
1 | GPEPEPEPEPIPEPPKEAPWIEKPKPKPKPKPKPA [TonB linker, reference compound] | no binding affinity | undetectable | > 50 µM | – | – | – | –
2 | B1 | – | – | 5 µM | 441.5 M⁻¹ s⁻¹ | 0.00089 s⁻¹ | 2e-06 M | 50 fold
